Numbering of substitutions follows the chain as printed.
B1: 52H5D3B8-6#-VH3+VL3 (antibody, V domains shown)
VH: QVQLVQSGAEVKKPGASVKVSCKALGYTFTDYEMHWVKQAPGQGLEWIGAIHPGSGGTAYNQKFKGRVTLTADTSTSTVYMELSSLRSEDTAVYYCTRYYSYAYWGQGTLVTVSS
VL: DIVMTQTPLSLSVTPGQPASISCRSSQSLVHSNGNTYLQWYLQKPGQSPKLLIYKVSNRFSGVPDRFSGSGSGTDFTLKISRVEAEDVGVYYCFQSIHVPYTFGGGTKLEIK
notes: humanized
B2: 52H5D3B8-6#-VH4+VL4 (antibody, V domains shown)
VH: B1 VH with V68A, L70M, T74K, S75F
VL: B1 VL with Y92F
notes: humanized
B3: 52H5D3B8-6#-VH3+VL4 (antibody, V domains shown)
VH: B1 VH
VL: B1 VL with Y92F
notes: humanized
B4: 52H5D3B8-6#-VH4+VL1 (antibody, V domains shown)
VH: B1 VH with V68A, L70M, T74K, S75F
VL: B1 VL with K50Q
notes: humanized
B5: 52H5D3B8-6#-VH4+VL2 (antibody, V domains shown)
VH: B1 VH with V68A, L70M, T74K, S75F
VL: B1 VL with K50Q, Y92F
notes: humanized
B6: 52H5D3B8-6#-VH4+VL3 (antibody, V domains shown)
VH: B1 VH with V68A, L70M, T74K, S75F
VL: B1 VL
notes: humanized
B7: Hu 52H5D3B8-2 (antibody, V domains shown)
VH: EVQLVQSGAEVKKPGASVKVSCKASGYTFTDYEMHWVRQAPGQGLEWMGAIHPGSGGTAYNQKFKGRVTMTRDTSISTAYMELSRLRSDDTAVYYCARFYSYAYWGQGTLVTVSS
VL: B1 VL with I2V, K50Q, Y92F, F94S, L109V
notes: humanized 52H5D3B8; also called 52H5D3B8 VH0 + VL1
B8: Hu 52H5D3B8-6 (antibody, V domains shown)
VH: B7 VH with R72A, A97T
VL: B1 VL with I2V, K50Q, Y92F, F94S, L109V
notes: humanized 52H5D3B8; also called 52H5D3B8 VH2 + VL1
B9: Hu 52H5D3B8-9 (antibody, V domains shown)
VH: B7 VH with M48I, M70L, R72A, T74K, A97T
VL: B1 VL with I2V, K50Q, F94S, L109V
notes: humanized 52H5D3B8; also called 52H5D3B8 VH4 + VL0

biological target: T1, human GPC3 on cells (human, UniProt P51654 25-554); assay: FACS, Huh-7 cells
T1 construct: whole, on cells; over-expressed on CHOK1 cells or endogenous on HEPG2, Hep3B and Huh-7 hepatocellular carcinoma cells; the cell line is named under assay; also called GPC3-CHOK1 cells; human GPC3 over-expressed CHOK1 cells
Description: (§1) To evaluate the antigen binding property, the humanized antibodies were analyzed for their binding to human GPC3 over-expressed CHOK1 cells, HEPG2 cells, Hep3B cells and Huh-7 cells by FACS. Briefly, GPC3-CHOK1 cells, HEPG2 cells, Hep3B cells and Huh-7 cells were firstly incubated with Fc blocking reagent at 4° C. for 15 mins. Cells were washed by FACS buffer and divided to each well with 4-fold serially diluted humanized antibodies starting at 10 μg/mL at 4° C. for 60 mins. Cells were washed by FACS buffer and fixed with 2% PFA at RT for 15 mins. […] The 16 humanized antibodies were separated into two plates.

EC50	Binder
0.0351 µg/mL	B1
0.0259 µg/mL	B2
0.0322 µg/mL	B3
0.0306 µg/mL	B4
0.0326 µg/mL	B5
0.0287 µg/mL	B6

biological target: T1, human GPC3 on cells; assay: FACS, GPC3-CHOK1 cells
Description: as §1, with “CHOK1” for “CHOK1 cells, HEPG2 cells, Hep3B”, “GPC3-CHOK1” for “GPC3-CHOK1 cells, HEPG2 cells, Hep3B”, “As different plates might affect the EC50 of 52H5D3B8-VH+VL, the 12” for “The 16”

EC50	Binder
0.0338 µg/mL	B7
0.0509 µg/mL	B8
0.0572 µg/mL	B9

biological target: T2, human GPC3-his tag protein (human, UniProt P51654 25-559, limits assumed); assay: SPR Biacore 8K, mAb captured, affinity ranking
T2 construct: recombinant soluble antigen used as analyte in all Biacore runs; also called recombinant GPC3 protein; rhGPC3-His; not shown: His tag
Description: To evaluate antigen binding activity, the chimeric antibody's affinity was measured by Biacore 8K. Two concentrations with most close affinity to the chimeric antibody's affinity were chosen for the 12 humanized antibodies' affinity detection. Human GPC3-his tag protein was injected over captured antibody for 3 mins at a flow rate of 30 μl/min. The antigen was allowed to dissociate for 720 s.

Kd	koff	kon	Binder
5710 pM	0.00163 s⁻¹	285000 M⁻¹ s⁻¹	B7
2940 pM	0.000961 s⁻¹	327000 M⁻¹ s⁻¹	B8
4180 pM	0.00102 s⁻¹	244000 M⁻¹ s⁻¹	B9

biological target: T1, human GPC3 on cells; assay: FACS, HEPG2 cells
Description: as §1

EC50	Binder
0.0426 µg/mL	B1
0.0367 µg/mL	B2
0.0422 µg/mL	B3
0.04 µg/mL	B4
0.0435 µg/mL	B5
0.0391 µg/mL	B6

biological target: T2, human GPC3-his tag protein; assay: SPR Biacore, mAb captured on CM5, GPC3-his dilution series (full kinetics)
Description: The binding of the humanized antibodies to recombinant GPC3 protein (human GPC3-his tag) was tested by Biacore using a capture method. 52H5D3B8-6 #-V+VL, 52H5D3B8-6 #-VH1+VL1, 52H5D3B8-6 #-VH1+VL3, 52H5D3B8-6 #-V1+VL4, 52H5D3B8-6 #-VH2+VL4, 52H5D3B8-6 #-VH3+VL1, 52H5D3B8-6 #-VH3+VL3 mAbs were captured using CM5 sensor chip. A serial dilution of human GPC3-his tag protein was injected over captured antibody for 2 mins at a flow rate of […]. The antigen was allowed to dissociate for 360 s. All the experiments were carried out on a Biacore T200.

Kd	koff	kon	Binder
898 pM	0.000538 s⁻¹	600000 M⁻¹ s⁻¹	B1

biological target: T2, human GPC3-his tag protein; assay: SPR Biacore 8K, mAb captured, affinity ranking; remark: another data set of the same source
Description: To evaluate antigen binding activity, the chimeric antibody's affinity was measured by Biacore 8K. A serial dilution of human GPC3-his tag protein was injected over captured chimeric antibody 52H5D3B8-6 #-VH+VL for 3 mins at a flow rate of 30 μl/min. The antigen was allowed to dissociate for 720 s. Among the multi detection doses, two concentrations with most close affinity to the chimeric antibody's affinity were chosen for the 16 humanized antibodies' affinity detection.

Kd	koff	kon	Binder
721 pM	0.000514 s⁻¹	714000 M⁻¹ s⁻¹	B1
857 pM	0.000593 s⁻¹	692000 M⁻¹ s⁻¹	B2
725 pM	0.000516 s⁻¹	711000 M⁻¹ s⁻¹	B3
1010 pM	0.000646 s⁻¹	643000 M⁻¹ s⁻¹	B4
1050 pM	0.000674 s⁻¹	642000 M⁻¹ s⁻¹	B5
847 pM	0.000601 s⁻¹	709000 M⁻¹ s⁻¹	B6

biological target: T1, human GPC3 on cells; assay: FACS, Huh-7 cells; remark: another data set of the same source
Description: as §1, with “CHOK1” for “CHOK1 cells, HEPG2 cells, Hep3B”, “GPC3-CHOK1” for “GPC3-CHOK1 cells, HEPG2 cells, Hep3B”, “As different plates might affect the EC50 of 52H5D3B8-VH+VL, the 12” for “The 16”

EC50	Binder
0.0195 µg/mL	B7
0.0295 µg/mL	B8
0.0348 µg/mL	B9

biological target: T1, human GPC3 on cells; assay: FACS, GPC3-CHOK1 cells; remark: another data set of the same source
Description: as §1

EC50	Binder
0.0408 µg/mL	B1
0.0367 µg/mL	B2
0.0419 µg/mL	B3
0.0387 µg/mL	B4
0.0425 µg/mL	B5
0.0379 µg/mL	B6

biological target: T1, human GPC3 on cells; assay: FACS, Hep3B cells
Description: as §1

EC50	Binder
0.0682 µg/mL	B1
0.047 µg/mL	B2
0.0629 µg/mL	B3
0.0565 µg/mL	B4
0.0627 µg/mL	B5
0.0511 µg/mL	B6
